This test addresses T1, VelB-GFP (A. nidulans Velvet-like B, full length, fused to GFP) (A. nidulans, UniProt C8VTS4 1-369).
T1 construct: Velvet-like B (VelB), A. nidulans, AN0363, full-length protein with the 99-aa intrinsically disordered domain (IDD) inside the velvet domain; Strains AGB1132 (wild-type background), AGB1190 (veA deletion background), AGB1136 (with vosA:ha), AGB1149 (with veA:ha); plasmid pME4687; Fusion printed as 67 kD; also called velB::sgfp; full-length VelB-GFP; source: A. nidulans, velB:gfp in locus under …
T1 sequence (looked up): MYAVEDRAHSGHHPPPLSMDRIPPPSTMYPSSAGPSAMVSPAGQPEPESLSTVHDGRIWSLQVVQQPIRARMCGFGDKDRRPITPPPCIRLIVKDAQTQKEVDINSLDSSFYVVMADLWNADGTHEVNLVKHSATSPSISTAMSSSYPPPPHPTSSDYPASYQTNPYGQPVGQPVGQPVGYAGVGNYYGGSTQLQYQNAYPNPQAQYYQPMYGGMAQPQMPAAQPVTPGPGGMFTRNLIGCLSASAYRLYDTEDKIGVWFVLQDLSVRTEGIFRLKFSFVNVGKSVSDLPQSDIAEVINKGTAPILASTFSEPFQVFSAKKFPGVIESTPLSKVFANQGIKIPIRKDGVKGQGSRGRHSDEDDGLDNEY
Description: co-IP; GFP and HA (anti-HA agarose) pull-downs from vegetative mycelium of A. nidulans strains expressing veA:HA or vosA:HA and velB:gfp or velB^ΔIDD:gfp under native promoters, intact veA; Western with GFP and HA antibodies. The following applies: partners not purified.

Experimental findings from PMC12614781, “The VelB IDD promotes selective heterodimer formation of velvet proteins for fungal development” (Life Science Alliance, 2025) are described below.

B1: VosA-HA (A. nidulans VosA with HA tag) (natural protein, UniProt Q5BBX1 1-430, looked up)
chain: MSAANYPDPSLPRPSTSDDFELIVRQNPNRARVAGGKEKERKPVDPPPIVQIRVREEGTYLAQHYLQSPYFFMSCSLYDAQEDAPASIPPSTALTGTLVSSLHRLKDVDNTDGGFFVWGDLSIKVEGDFRLKFSLFEMRKTDVVFLKSIVSERFTVSPPKSFPGMAESTFLSRSFADQGVKLRIRKEPRTLIKRTAPRPEEYPQAAIPRSPSDRTAMQIPGSSYPAPPYQPTSRDYSYYAPVKRQRTSVDYGARGMYDADGRMRQMETYPQTATLYGQPGGYPTPMMGYPSGHGGVPDYAMSYGLPPSAQVPQMQDPAAQSRSSQQATMQSLGMVNPPGTPTPDSARAMMQQAYPRPQYSASTAVLPPLQQSRNYPQGTNGATRGYYEQSPQATPILPSQPLGTSEAERYGVPPGHTGYDHTGSANGTPR
notes: Viability of spores A (VosA), A. nidulans, AN1959; the vosA gene amplified with its 5' flanking region; Plasmid pME4693; strains AGB1136 (with velB:gfp) and AGB1137 (with velB^ΔIDD:gfp); source: A. nidulans, vosA:ha under its native promoter, in extract of vegetative mycelium
Consider B1, for which the “fold abundance of VosA in the GFP pull-down against the VelB^ΔIDD-GFP strain” value was found to be 10 fold.
